In the DeepSol protein solubility set:

Experiment: soluble on expression in E. coli; label from the status in PepcDB or PDB records

Row | Sequence | soluble on expression in E. coli
1 | MCGRFVLFTTDESLLGHPALRIFHSIHAPKGMPPARYNIAPTTIIPILRVGTTPTEAVIEPARWGLIPAWKREVTLPPLFNARAETVTTKPSFRQAFSTQRCAIPMDGYYEWHNKKPYWITTGAPTWVAGLWDSGAGMLSATMITTDSVAPLDWLHHRMPRFLNNDELAVWLRGSADEASGLLTPGDASAFHTSLADPSVGNIRNDYPELIDAPTDLFSLLEHHHHHH | soluble
2 | MVTIANDFLTVKISRHGAELTSIKDNLTGRERLWQADPAVWGRHAPVLFPIVGALADNQYHYAGKTYHMGQHGFARDRDFTVLSATPFKASFVLKDDDKTRAMYPFAFRLIITFALENNNLHVTYHVDNPDKSEPLFFSIGGHPGFKVPMTPDTQFSDYYLNFKPRKSLVQIPLVAGEGIDYTHRTLAATDANLALTHETFDHDALIFALLGKTTFNLVSDKTKHGVSVTMTDTPYLGVWSPYPTTGDFVCIEPWWGIADTIGSTGDLTRKLGINRLEPGTAFEKGYMISIFLEHHHHHH | not soluble
3 | ASGSSFASTRKLLNRHSLHTVCRSAMCPNLHECWSKGTATFLLLGNVCTRSCRFCAVGTECRPAMPDPEEPSKIAEAVKTMKLRHAVLTSVNRDDLADGGATHWVETIRAIREVNPGVSLECLIPDFSGNEQSLDLVMQELPEVLNHNIETVPSRYAAVRPQALYERSLAVIERAKRQFRLATKSGMMVGMGETEEELEASLHDLRGHGCDMVTIGQYLQPTAAHLPVSRYVTPEEFERYREIALDAGFRHVQSGPFVRSSYHAEAFEPVEK | not soluble
4 | MDFLQGDRGDYKSALGSLQQVGYGSVIAKIRLAFNATGSVLRKRVLKEEQIEETVAKELEERRRTWDVNNGQFDKFSQWYIEYRKNLWHKDDYLPWLLYENEISCLKLTFDVCERPPRRINYGGRNRYTCEN | not soluble
5 | GTEDTVIKVSVLRGPSVIAFADWLENPPIIDNKKVQVKVVDSPDLAQALLIKQETDIAVLPMINAANLYNKGIKIKLAGCPIWGTLYLVEKTPLKEPALYVFGNGTTPDILTRYYLGRQRLDYPLNYAFNTAGEITQGILAGKVNRAVLGEPFLSIALRKDSSLRITADLNHLTDNDTLGFAQTAVVYTPTMEKYRIAFEDALRASCQKAVRYPKETIHSLEEHGIFAQGALTPKSIERCKIYYLSAIEAKDAVMGFLRLIEQYEPKAVGGRLPDAGFIPEKQ | soluble
6 | MGSDKIHHHHHHDDDIIGALLEGKMPQATPVPPPTTVAATVASIDPPALKPAVDPRWVHLHNVHTGEKLEAVYWENGDYVPDAVSALDKVLRDYRNDEVHPIDRGLYDLLDQIARKTQSKGPFQVISGYRSPATNRLLSKRSGEVAKKSLHMDGKAMDIFLEDVELKHVRAAALDLSVGGVGYYPTSNFVHVDVGPVRKWTGT | not soluble
7 | SMRYTVSNLSMQTHAARFKTFFNWPSSVLVNPEQLASAGFYYVGNSDDVKCFCCDGGLRCWESGDDPWVQHAKWFPRCEYLIRIKGQEFIRQVQAS | soluble
8 | MQMNSEKFFKLFRVGETVLVEYSGTSRAELLLYYIVNNSKLPIVVDDILDTYYEFYTRLKVAGFDVAPLENVQVIKMGGTKDIGRVIGRLNISKYVISEQEYMEIVSQLKDYPVINPVLGLHKLILLGNTFENINVVKMVSNYVGREERIAFYFVNRNVIEKHSSPILDLLEEVVTSILEITDSGIIIKKSIKDEIAGKIVSPLLNF | soluble
9 | MYDWFKQMRKESPVYYDGKVWNLFKYEDCKMVLNDHKRFSSNLTGYNDKLEMLRSGKVFFDIPTRYTMLTSDPPLHDELRNLTADAFNPSNLPVDFVREVTVKLLSELDEEFDVIESFAIPLPILVISKMLGINPDVKKVKDWSDLVALRLGRADEIFSIGRKYLELISFSKKELDSRKGKEIVDLTGKIANSNLSELEKEGYFILLMIAGNETTTNLIGNAIEDFTLYNSWDYVREKGALKAVEEALRFSPPVMRTIRVTKEKVKIRDQVIDEGELVRVWIASANRDEEVFKDPDSFIPDRTPNPHLSFGSGIHLCLGAPLARLEARIALEEFAKKFRVKEIVKKEKIDNEVLNGYRKLVVRVERT | soluble
10 | QIKDHLIIVGFGFSGKTISKAAKAAGIPYLIIEMNPEIVQHEKAKGEKIQYGDATFGAVLEHAGIKNARVLVTGIADSSSTGKIVEKAKELNPNICVIVKVHDLQEMKRLNSMGADEIIPEEYETSVEIFVRLLEKYLVPRENIEK | not soluble
11 | MGSDKIHHHHHHMNELDIIKIISKNLSYSNGVEKGIGDDCAVFKFENQHLVVTTDMMFKSTHFPSILTPFQIGMRVVTANVSDIAAMCAKPLGMVISMGFDNPKKTFIDEMSKGINFISKEYGCPIAGGDTNKAPELTLSGTAFGITDNPIYRGGIIGEDICITGDVGKVNCALKLLEMKDKGILGNIEFEKTMSEFPRIMKKLAEPKARVKEGLLLNKIITSCCDISDGLSKDLNYTGNFEINSKNLLNSVSREVIEFCEKFDMDLLKTVLNSGEEFELLFTTPDFKKAEEKLKDINSVTKIGKVVESGKTVDGISVELEGYVHKW | not soluble
12 | MGSDKIHHHHHHMELRHLRHFIVLARLKSFSKAANELHLAQPSLSRSIQKMEERLGASLLARDEKHFALTEYGRLVLAQGELIVSQLEYLESEIKTKQGLEKAKLVIGASPIPSNSIIGPAVGRFIRDNPDISLELKVESWSRLYKLLLKGELDMFIAETNATLLDQRDNVITQCLPQSQAIFCCRPHHPLTRLKTVYLPSLRDYPVGMPSAMPQLLRQRFEDLFEEDRHDFVGLVKYAQFQPIKSAIKECDMVVITPDISVREELASGELVALDVVGVPNIKASFSVVSMKNRRLSHSAEQFVDSLLTHSSAKAVGF | not soluble
13 | MKVAEIIVVEGKDDTRRIQEVVAADTIETIGSAINDEILTQIEHAQETRGVIIFTDPDYSGEKIRKTIMEVVPDAKHAFLSRKVAVPKKNGGSLGVEHASDEAIIEALKKVVTPVQADEDYQEIPRQTLVEYGLIAGANAKKYRELLGDDLRIGYTNSKQLVKRLSMFRITEAELKESMTRILKELANEE | not soluble
14 | MAHHHHHHMSTRKEPPKVLKGAAYTECSPISDVSHHKASASKAFLENHYRGMLRDTRSGNTARPVGPRPREPCVDDFVLVKRIGKGAFGEVYLCYKKYDNDKQLYALKRMRKTDMIRKKQISHVRSEKDVMAEAASTNPWVVKLYLSFQDEQYLYMVMEYMPGGDMISWLCIKQRFDVESTRFYIAELCAAVASVHDMFFVHRDIKPDNILLDAKGHIKLTDFGLSKRFAKVGEELLDLEEGNDALCSSNSSANLSNTCGSTCQGPNSVPVVSPHNPHSPTANYNSLTPAGSHASAHPQARRIFESIVGSPGYIAPEILLRQRYGVNCDWWSVGVIMYEMLYGIPPFFSSDTSSTCHKITHWREYLTYPSDRGVPPEATDLLRRLMCDQRDRLDFQGVKEHPFFNDIDWERLRETPPAFVPELSDPLDTHYFPEVEDNTPQQHHQRPEERNAVREVDPRGVIFADYKFNLKR | soluble
15 | MGHHHHHHSHMSGGEVVCSGWLRKSPPEKKLKRYAWKRRWFVLRSGRLTGDPDVLEYYKNDHAKKPIRIIDLNLCQQVDAGLTFNKKEFENSYIFDINTIDRIFYLVADSEEEMNKWVRCICDICGFNPTEEDPVK | not soluble
16 | MSLEPATAPRPDMAPELTPEEEQATKQFLEEINKWTVQYNVSPLSWNVAVKFLMARKFDVLRAVELFHCYRETRRKEGIVKLKPHEEPLRSEILSGKFTILNVRDPTGASIALFTARLHHPHKSAQHVVLQALFYLLDRAVDSFETQRNGLVFIYDMCGSNYANFELDLGKKVLNLLKGAFPARLKKVLIVGAPIWFRVPYSIISLLLKDKVRERIQILKTSEVTQHLPRECLPENLGGYVKIDLATWNFQFLPQVNGHPDPFDEIILSSLPPAEGHHHHHH | soluble
17 | MEYKPIRKVVSGNYAAAYAALHARVQVVAAYPITPQTSIIEKIAEFIANGEADIQYIPVESEHSAMAACIGASATGARTFTATSAQGLALMHEMLHWAAGARLPIVMVDVNRAMAPPWSVWDDQTDSLSQRDTGWMQFYAENNQEVYDGVLMAYKVAETVNVPAMVVESAFILSHTYDVVEMIPQELVDEFLPPRKPLYSLANFDEPIAVGALATPNDYYEFRYKLAKAHEEAKKVIKEVGKEFGERFGRDYSQMIETGYIDDADFVFMGMGSLMGTVKEAVDLLRKEGYKVGYAKVRWFRPFPKEELVEIAESVKGIAVLDRNFSFGQEGILFTESKGALYNSSAHPLMKNYIVGLGGRDVTVKDIKAIADDMKKVIESGKVDKEVVWYHLKR | not soluble
18 | MQLDPPEPGFYDDPDLSYSIEKSITNWDEKRHEWFKSHPSFKPGSENRILMVTGSQSSPCKNPIGDHLLLLRCFKNKVDYARIHGHDIFYSNSLLHPKMNSYWAKLPVVKAAMLAHPFMD | not soluble
19 | MAHHHHHHMQVWGLVGRLTLPPSSSGKARKGSRRIPAADARLSKGSVNNRGRFVHNNRRMDNTLSVVVEKPAGLRRQWIAWPRGKSRDDPYEAIVPLLHISHYLPPVMAEAASCLDVKASFFPSLFTAGDSASLSMPRGGRHAGGADTTFNGIQGQPRNSPDYYYLGNRGGDDGGSPLWAAPPMVRIEVWIDNIRITGSKSDVTLWEAQVLRNADSCHAYLGGTANRALRNTLFWGYDLIKLTVRYP | not soluble
20 | MKKLLVIRNDKIGDFMLCFPAFMMLKQSMPNIEITALVPNYTAPLAELCPAIDHLIIDNTDKQDPIAFKQVQQAVQNGQFDAVICFVSSWYNAKLTWQSGIRYRLAPATKLFQFLYNHRLTQRRSQSIKAESEYNLDLARAFLIDHHMMPVEPQLEHHHHHH | soluble
21 | MGSDKIHHHHHHMRNILEIVKFWFYDYDVTATEIKANVIKIHCNNKSYILKEKGSIKQLLVEINVLEQLEEKGVKAQKLVKTSNSEKYVVYKERYYCLYEYVVGSVLEIKDPENLKNLGSLIGEEIAKLHQALNSVNSNNELVKRELYKLVYEWALPNLEKNEHVDQDVVRTMNQIHSDFKKTITSLRKQIIHRDMHLSNVIFKDNEFQGFIDFELLERNVRVFDLCYCCTSILSELHSDEELRGKWQHIISKIFEGYNKQSILTREELQAIWYVMLSIQVIFITYFVQLPDLLKLNEEMFFWIFANKETIEELIERSVQI | not soluble
22 | MGKEMASEYELGQVRLGEFQLYTNGEELYRKLFEDINDAEKYIYIHFYIVGKDEISQEFLQLLEKKASSGVEVKLSVDRIGGYKLKKKVISRLKENGVKFTFSKKPKLKNVFYSLHQRNHRRIVTIDGKVSYVGGFNIGKEYLGQNPKFGPWRDYHVRIHGEGAADMERKFAEDWKEDTGEKMPIHESIPTLGNVKYQYLFSNGKGLWEKYGALLKKAKKSLIIATPYFVPSKEMVKELKAALNRGVNVKILVPFKSDAILLKQAAYPYLKDMLHAGAEIYQYRNGFFHGKVTIIDGEIVDIGTANFDNRSFYLNCESNCIIYDKTVVDEVWSRLQVDFHKSKRFSEEDFEKISRWDWFLARIANVLASYL | not soluble
23 | MGSDKIHHHHHHMYIDGVFSGGGVKGIALAGAYEVLEEKGFRFKRVAGTSAGAIIAAFIASGYTSKEIHALIEEVDGEKLLDQRYSFLPLKMLQWVSIYWRLGLYKGDTIEKWIADLLRAKGIRVFGDLQKGSLRLIASDLTNGTMIVLPDDLARYGLNPDMFPVARAVRMSCSIPYFFEPIKLKTDTGTATVVDGGVLSNFPIWLFSKERKRPVIGVTLAPRERERPKKNIRNAFELFGALFETMKDAHDARHIASRYEQNIIFLPVDDVMATDFHLTQQKKLALIELGKRRTELFLKQWTY | not soluble
24 | MGSDKIHHHHHHMHVIKAKDDYTYRHTVGVSILSRLIGTWLKLDEVILKELTLGAVLHDIGKVEIPDAILNKPGALTKDEYRIIQDHTVKGYRIIQESGIYSDTVALMALEHHEREDGTGYPYQKTRNEIHLLSKILAVADVFHAMTSDRIYRKGMALYDVLLQMRQDRFGKLEPRITDFFVRRFMEQCIGSKARLNDGSRVEIVFIPYENPICPIVKQGTNYIDLRMSPLYIQELIPVTVKV | not soluble
